According to patent US20110034673A1:

Target: human HB-EGF on cells (membrane type and cell membrane-bound HB-EGF of human cancer cell lines) (human) (UniProt Q99075)
Test: cell-based or functional assay

Chain of human HB-EGF on cells (membrane type and cell membrane-bound HB-EGF of human cancer cell lines) (human) (Q99075 63-148 limits assumed): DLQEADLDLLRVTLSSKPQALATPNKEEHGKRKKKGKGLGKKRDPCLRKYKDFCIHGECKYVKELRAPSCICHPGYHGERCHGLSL

ADCC activity relative to KM3966 (fold of KM3966): 0.1
B1: anti-HB-EGF humanized antibody HV0LV0 (antibody, V domains shown)
VH: QVQLVQSGAEVKKPGASVKVSCKASGYTFTTYGITWVRQAPGQGLEWMGEIFPGSGNTYYNEKFKGRVTITADKSTSTAYMELSSLRSEDTAVYYCARESFSDGYYGYFDYWGQGTLVTVSS
VL: DIVMTQSPDSLAVSLGERATINCKSSQSLLYSTNQKNSLAWYQQKPGQPPKLLIYWASTRESGVPDRFSGSGSGTDFTLTISSLQAEDVAVYYCQQYYRYPLTFGQGTKLEIK
